# Source: patent publication US20250262210A1 (TRUSTEES OF COLUMBIA UNIVERSITY IN THE CITY OF NEW YORK, published 2025)
# T1: SBNO2 (human, UniProt Q9Y2G9 1-1366, limits assumed)
# T1 sequence (looked up): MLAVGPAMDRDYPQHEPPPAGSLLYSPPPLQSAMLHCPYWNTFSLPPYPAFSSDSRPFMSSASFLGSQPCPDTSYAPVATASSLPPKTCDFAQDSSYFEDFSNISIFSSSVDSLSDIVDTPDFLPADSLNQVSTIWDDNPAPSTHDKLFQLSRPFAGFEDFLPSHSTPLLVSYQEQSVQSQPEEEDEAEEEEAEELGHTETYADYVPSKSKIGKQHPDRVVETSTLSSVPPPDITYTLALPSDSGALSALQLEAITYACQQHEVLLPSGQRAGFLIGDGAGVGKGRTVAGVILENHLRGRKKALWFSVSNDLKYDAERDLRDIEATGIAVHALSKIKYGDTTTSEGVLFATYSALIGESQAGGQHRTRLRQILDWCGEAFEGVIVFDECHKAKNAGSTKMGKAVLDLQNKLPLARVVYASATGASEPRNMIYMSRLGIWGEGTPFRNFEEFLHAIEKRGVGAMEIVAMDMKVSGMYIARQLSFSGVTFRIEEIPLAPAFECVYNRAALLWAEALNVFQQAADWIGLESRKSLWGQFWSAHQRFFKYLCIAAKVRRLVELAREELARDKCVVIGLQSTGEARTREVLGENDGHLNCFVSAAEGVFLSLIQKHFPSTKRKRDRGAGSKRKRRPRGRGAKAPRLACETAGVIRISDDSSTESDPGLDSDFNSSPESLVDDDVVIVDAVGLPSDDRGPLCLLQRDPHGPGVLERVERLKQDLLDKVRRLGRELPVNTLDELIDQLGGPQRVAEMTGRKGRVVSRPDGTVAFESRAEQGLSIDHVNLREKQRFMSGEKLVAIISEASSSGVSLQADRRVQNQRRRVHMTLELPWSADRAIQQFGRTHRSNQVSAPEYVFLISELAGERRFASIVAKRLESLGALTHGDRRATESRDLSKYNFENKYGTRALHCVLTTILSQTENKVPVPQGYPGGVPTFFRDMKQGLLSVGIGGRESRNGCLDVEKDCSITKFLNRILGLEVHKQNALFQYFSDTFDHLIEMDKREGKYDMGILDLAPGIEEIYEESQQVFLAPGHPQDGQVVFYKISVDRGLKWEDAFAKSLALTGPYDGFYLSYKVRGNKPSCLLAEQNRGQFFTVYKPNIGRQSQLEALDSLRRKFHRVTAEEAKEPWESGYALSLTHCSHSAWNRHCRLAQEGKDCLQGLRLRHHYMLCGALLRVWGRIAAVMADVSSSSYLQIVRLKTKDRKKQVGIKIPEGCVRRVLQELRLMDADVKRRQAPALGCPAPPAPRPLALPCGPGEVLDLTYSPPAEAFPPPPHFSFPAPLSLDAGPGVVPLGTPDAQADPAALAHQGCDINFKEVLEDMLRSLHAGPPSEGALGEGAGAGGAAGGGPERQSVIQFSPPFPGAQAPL
# B1: LZTR1 R810W-FLAG (other, human, UniProt Q8N653 1-840, looked up)
# chain: MAGPGSTGGQIGAAALAGGARSKVAPSVDFDHSCSDSVEYLTLNFGPFETVHRWRRLPPCDEFVGARRSKHTVVAYKDAIYVFGGDNGKTMLNDLLRFDVKDCSWCRAFTTGTPPAPRYHHSAVVYGSSMFVFGGYTGDIYSNSNLKNKNDLFEYKFATGQWTEWKIEGRLPVARSAHGATVYSDKLWIFAGYDGNARLNDMWTIGLQDRELTCWEEVAQSGEIPPSCCNFPVAVCRDKMFVFSGQSGAKITNNLFQFEFKDKTWTRIPTEHLLRGSPPPPQRRYGHTMVAFDRHLYVFGGAADNTLPNELHCYDVDFQTWEVVQPSSDSEVGGAEVPERACASEEVPTLTYEERVGFKKSRDVFGLDFGTTSAKQPTQPASELPSGRLFHAAAVISDAMYIFGGTVDNNIRSGEMYRFQFSCYPKCTLHEDYGRLWESRQFCDVEFVLGEKEECVQGHVAIVTARSRWLRRKITQARERLAQKLEQEAAPVPREAPGVAAGGARPPLLHVAIREAEARPFEVLMQFLYTDKIKYPRKGHVEDVLLIMDVYKLALSFQLCRLEQLCRQYIEASVDLQNVLVVCESAARLQLSQLKEHCLNFVVKESHFNQVIMMKEFERLSSPLIVEIVRRKQQPPPRTPLDQPVDIGTSLIQDMKAYLEGAGAEFCDITLLLDGHPRPAHKAILAARSSYFEAMFRSFMPEDGQVNISIGEMVPSRQAFESMLRYIYYGEVNMPPEDSLYLFAAPYYYGFYNNRLQAYCKQNLEMNVTVQNVLQILEAADKTQALDMKRHCLHIIVHQFTKVSKLPTLWSLSQQLLLDIIDSLASHISDKQCAELGADI
# notes: Stably expressed in U87 cells by lentivirus; also called LZTR1-FLAG-R810W; LZTR1 RW; not shown: FLAG tag
# Legend:
# SBNO2 = biological target: T1, SBNO2; assay: IP/MS, LZTR1 R810W-FLAG, U87
# Summary of the method: (§1)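 Read-out: spectral counts from LC-MS/MS (Orbitrap Fusion) after MaxQuant identification. Variable modifications were Met oxidation, protein N-terminal acetylation and N/Q deamidation.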
# KIAA1217 = KIAA1217 (human, UniProt Q5T5P2 1-1943, limits assumed); assay: IP/MS, LZTR1 R810W-FLAG, U87
# Sequence of KIAA1217 (Q5T5P2 whole entry): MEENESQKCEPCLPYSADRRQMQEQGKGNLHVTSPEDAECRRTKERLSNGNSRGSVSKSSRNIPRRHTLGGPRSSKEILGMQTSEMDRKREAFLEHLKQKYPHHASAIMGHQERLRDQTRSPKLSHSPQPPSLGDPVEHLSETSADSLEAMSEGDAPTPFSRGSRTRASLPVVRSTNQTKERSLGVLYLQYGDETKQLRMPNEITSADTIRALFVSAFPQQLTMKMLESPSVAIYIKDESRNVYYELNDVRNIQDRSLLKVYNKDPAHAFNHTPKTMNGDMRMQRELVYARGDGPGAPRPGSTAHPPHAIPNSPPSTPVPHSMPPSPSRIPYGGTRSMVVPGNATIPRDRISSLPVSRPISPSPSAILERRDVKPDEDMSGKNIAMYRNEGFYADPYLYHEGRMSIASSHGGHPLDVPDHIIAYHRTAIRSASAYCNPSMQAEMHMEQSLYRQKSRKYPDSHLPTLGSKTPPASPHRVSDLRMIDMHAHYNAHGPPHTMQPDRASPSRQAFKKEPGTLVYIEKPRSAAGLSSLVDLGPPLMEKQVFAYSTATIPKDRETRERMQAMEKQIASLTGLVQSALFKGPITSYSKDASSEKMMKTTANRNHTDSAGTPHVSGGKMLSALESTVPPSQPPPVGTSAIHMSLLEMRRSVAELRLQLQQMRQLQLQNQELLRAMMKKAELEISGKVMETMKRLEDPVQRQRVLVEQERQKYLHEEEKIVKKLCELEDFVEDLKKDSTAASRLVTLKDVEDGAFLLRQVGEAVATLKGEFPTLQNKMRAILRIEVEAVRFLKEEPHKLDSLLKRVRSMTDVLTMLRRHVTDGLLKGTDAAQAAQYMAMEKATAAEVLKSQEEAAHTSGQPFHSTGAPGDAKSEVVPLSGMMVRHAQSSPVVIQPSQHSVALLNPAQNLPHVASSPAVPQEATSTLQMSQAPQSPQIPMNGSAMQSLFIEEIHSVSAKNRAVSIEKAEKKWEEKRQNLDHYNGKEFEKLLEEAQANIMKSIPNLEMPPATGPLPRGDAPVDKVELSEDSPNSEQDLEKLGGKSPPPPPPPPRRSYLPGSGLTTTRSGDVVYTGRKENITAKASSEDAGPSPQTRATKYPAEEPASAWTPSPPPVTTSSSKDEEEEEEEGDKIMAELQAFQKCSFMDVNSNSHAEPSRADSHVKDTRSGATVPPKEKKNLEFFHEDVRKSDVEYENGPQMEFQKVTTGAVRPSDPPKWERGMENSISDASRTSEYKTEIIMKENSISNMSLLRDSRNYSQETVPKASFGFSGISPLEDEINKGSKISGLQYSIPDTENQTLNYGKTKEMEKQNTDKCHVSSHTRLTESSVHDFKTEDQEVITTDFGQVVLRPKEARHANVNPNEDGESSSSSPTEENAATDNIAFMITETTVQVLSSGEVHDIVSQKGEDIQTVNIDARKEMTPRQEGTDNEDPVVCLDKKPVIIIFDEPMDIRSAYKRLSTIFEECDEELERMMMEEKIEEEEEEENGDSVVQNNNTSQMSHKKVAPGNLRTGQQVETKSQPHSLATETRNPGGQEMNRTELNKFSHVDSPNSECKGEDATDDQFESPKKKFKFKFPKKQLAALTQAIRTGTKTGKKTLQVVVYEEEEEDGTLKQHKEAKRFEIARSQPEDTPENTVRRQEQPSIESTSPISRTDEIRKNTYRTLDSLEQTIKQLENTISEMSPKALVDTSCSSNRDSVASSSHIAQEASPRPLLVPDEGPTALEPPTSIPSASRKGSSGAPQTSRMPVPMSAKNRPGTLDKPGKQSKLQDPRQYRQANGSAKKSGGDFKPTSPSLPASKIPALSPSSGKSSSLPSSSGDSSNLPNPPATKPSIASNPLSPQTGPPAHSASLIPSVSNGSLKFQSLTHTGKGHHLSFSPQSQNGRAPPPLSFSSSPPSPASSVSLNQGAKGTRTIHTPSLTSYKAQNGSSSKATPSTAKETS
# Summary of the method: as §1
binder,measurement,setting,value
B1,binding result,SBNO2,binds
same,binding result,KIAA1217,binds
